Assay results reported in patent US20240100162A1 (published 2024).

T1: MAGE-B2 peptide, G1A peptide on HLA-A*02:01 (human)
T1 peptide: AVYDGEEHSV

T2: MAGE-B2 peptide, G1W peptide on HLA-A*02:01 (human)
T2 peptide: WVYDGEEHSV

T3: MAGE-B2 peptide, G1H peptide on HLA-A*02:01 (human)
T3 peptide: HVYDGEEHSV

T4: MAGE-B2 peptide, G5S peptide on HLA-A*02:01 (human)
T4 peptide: GVYDSEEHSV

T5: MAGE-B2 peptide, E7K peptide on HLA-A*02:01 (human)
T5 peptide: GVYDGEKHSV

T6: MAGE-B2 peptide, Y3W peptide on HLA-A*02:01 (human)
T6 peptide: GVWDGEEHSV

T7: MAGE-B2 peptide, G1C peptide on HLA-A*02:01 (human)
T7 peptide: CVYDGEEHSV

T8: MAGE-B2 peptide, D4P peptide on HLA-A*02:01 (human)
T8 peptide: GVYPGEEHSV

T9: MAGE-B2 peptide, E7P peptide on HLA-A*02:01 (human)
T9 peptide: GVYDGEPHSV

T10: MAGE-B2 peptide, E7W peptide on HLA-A*02:01 (human)
T10 peptide: GVYDGEWHSV

T11: MAGE-B2 peptide, H8G peptide on HLA-A*02:01 (human)
T11 peptide: GVYDGEEGSV

T12: MAGE-B2 peptide, S9L peptide on HLA-A*02:01 (human)
T12 peptide: GVYDGEEHLV

T13: MAGE-A4 peptide on HLA-A*02:01 (human)
T13 peptide: GVYDGREHTV

T14: MAGE-B2 peptide, E6Q peptide on HLA-A*02:01 (human)
T14 peptide: GVYDGQEHSV

T15: MAGE-B2 peptide, S9K peptide on HLA-A*02:01 (human)
T15 peptide: GVYDGEEHKV

T16: MAGE-B2 peptide, H8T peptide on HLA-A*02:01 (human)
T16 peptide: GVYDGEETSV

T17: MAGE-B2 peptide, H8R peptide on HLA-A*02:01 (human)
T17 peptide: GVYDGEERSV

T18: MAGE-B2 peptide, S9Y peptide on HLA-A*02:01 (human)
T18 peptide: GVYDGEEHYV

T19: MAGE-B2 peptide, H8C peptide on HLA-A*02:01 (human)
T19 peptide: GVYDGEECSV

T20: MAGE-B2 peptide, E7T peptide on HLA-A*02:01 (human)
T20 peptide: GVYDGETHSV

T21: MAGE-B2 peptide, H8D peptide on HLA-A*02:01 (human)
T21 peptide: GVYDGEEDSV

T22: MAGE-B2 peptide, H8M peptide on HLA-A*02:01 (human)
T22 peptide: GVYDGEEMSV

T23: MAGE-B2 peptide, E6S peptide on HLA-A*02:01 (human)
T23 peptide: GVYDGSEHSV

T24: MAGE-B2 peptide, E6C peptide on HLA-A*02:01 (human)
T24 peptide: GVYDGCEHSV

T25: MAGE-B2 peptide, H8K peptide on HLA-A*02:01 (human)
T25 peptide: GVYDGEEKSV

T26: MAGE-B2 peptide, E7F peptide on HLA-A*02:01 (human)
T26 peptide: GVYDGEFHSV

T27: MAGE-B2 peptide, G5P peptide on HLA-A*02:01 (human)
T27 peptide: GVYDPEEHSV

T28: MAGE-B2 peptide, E7A peptide on HLA-A*02:01 (human)
T28 peptide: GVYDGEAHSV

T29: MAGE-B2 peptide, H8P peptide on HLA-A*02:01 (human)
T29 peptide: GVYDGEEPSV

T30: MAGE-B2 peptide, S9R peptide on HLA-A*02:01 (human)
T30 peptide: GVYDGEEHRV

T31: MAGE-B2 peptide, E6M peptide on HLA-A*02:01 (human)
T31 peptide: GVYDGMEHSV

T32: MAGE-B2 peptide, H8L peptide on HLA-A*02:01 (human)
T32 peptide: GVYDGEELSV

T33: MAGE-B2 peptide, E6T peptide on HLA-A*02:01 (human)
T33 peptide: GVYDGTEHSV

T34: MAGE-B2 peptide, S9H peptide on HLA-A*02:01 (human)
T34 peptide: GVYDGEEHHV

T35: MAGE-B2 peptide, H8I peptide on HLA-A*02:01 (human)
T35 peptide: GVYDGEEISV

T36: MAGE-B2 peptide, H8Q peptide on HLA-A*02:01 (human)
T36 peptide: GVYDGEEQSV

T37: MAGE-B2 peptide, E7I peptide on HLA-A*02:01 (human)
T37 peptide: GVYDGEIHSV

T38: MAGE-B2 peptide, S9F peptide on HLA-A*02:01 (human)
T38 peptide: GVYDGEEHFV

T39: MAGE-B2 peptide, H8V peptide on HLA-A*02:01 (human)
T39 peptide: GVYDGEEVSV

T40: MAGE-B2 peptide, E6I peptide on HLA-A*02:01 (human)
T40 peptide: GVYDGIEHSV

T41: MAGE-B2 peptide, E6F peptide on HLA-A*02:01 (human)
T41 peptide: GVYDGFEHSV


Tests used:
Assay in all cases: killing
[1] = target: T1, MAGE-B2 peptide, G1A peptide on …
[2] = target: T2, MAGE-B2 peptide, G1W peptide on …
[3] = target: T3, MAGE-B2 peptide, G1H peptide on …
[4] = target: T4, MAGE-B2 peptide, G5S peptide on …
[5] = target: T5, MAGE-B2 peptide, E7K peptide on …
[6] = target: T6, MAGE-B2 peptide, Y3W peptide on …
[7] = target: T7, MAGE-B2 peptide, G1C peptide on …
[8] = target: T8, MAGE-B2 peptide, D4P peptide on …
[9] = target: T9, MAGE-B2 peptide, E7P peptide on …
[10] = target: T10, MAGE-B2 peptide, E7W peptide on …
[11] = target: T11, MAGE-B2 peptide, H8G peptide on …
[12] = target: T12, MAGE-B2 peptide, S9L peptide on …
[13] = target: T13, MAGE-A4 peptide on HLA-A*02:01
[14] = target: T14, MAGE-B2 peptide, E6Q peptide on …
[15] = target: T15, MAGE-B2 peptide, S9K peptide on …
[16] = target: T16, MAGE-B2 peptide, H8T peptide on …
[17] = target: T17, MAGE-B2 peptide, H8R peptide on …
[18] = target: T18, MAGE-B2 peptide, S9Y peptide on …
[19] = target: T19, MAGE-B2 peptide, H8C peptide on …
[20] = target: T20, MAGE-B2 peptide, E7T peptide on …
[21] = target: T21, MAGE-B2 peptide, H8D peptide on …
[22] = target: T22, MAGE-B2 peptide, H8M peptide on …
[23] = target: T23, MAGE-B2 peptide, E6S peptide on …
[24] = target: T24, MAGE-B2 peptide, E6C peptide on …
[25] = target: T25, MAGE-B2 peptide, H8K peptide on …
[26] = target: T26, MAGE-B2 peptide, E7F peptide on …
[27] = target: T27, MAGE-B2 peptide, G5P peptide on …
[28] = target: T28, MAGE-B2 peptide, E7A peptide on …
[29] = target: T29, MAGE-B2 peptide, H8P peptide on …
[30] = target: T30, MAGE-B2 peptide, S9R peptide on …
[31] = target: T31, MAGE-B2 peptide, E6M peptide on …
[32] = target: T32, MAGE-B2 peptide, H8L peptide on …
[33] = target: T33, MAGE-B2 peptide, E6T peptide on …
[34] = target: T34, MAGE-B2 peptide, S9H peptide on …
[35] = target: T35, MAGE-B2 peptide, H8I peptide on …
[36] = target: T36, MAGE-B2 peptide, H8Q peptide on …
[37] = target: T37, MAGE-B2 peptide, E7I peptide on …
[38] = target: T38, MAGE-B2 peptide, S9F peptide on …
[39] = target: T39, MAGE-B2 peptide, H8V peptide on …
[40] = target: T40, MAGE-B2 peptide, E6I peptide on …
[41] = target: T41, MAGE-B2 peptide, E6F peptide on …

Binder	binding result [1]	binding result [4]	binding result [5]	binding result [6]	binding result [8]	binding result [9]	binding result [10]	binding result [11]	binding result [12]	binding result [13]	binding result [14]	binding result [15]	binding result [16]	binding result [17]	binding result [18]	binding result [19]	binding result [20]	binding result [21]	binding result [22]	binding result [23]	other results
TCR1 (TCR, V domains shown) Valpha: KQEVTQIPAALSVPEGENLVLNCSFTDSAIYNLQWFRQDPGKGLTSLLLIQSSQREQTSGRLNASLDKSSGRSTLYIAASQPGDSATYLCAAMKTSYDKVIFGPGTSLSVIP Vbeta: GEEVAQTPKHLVRGEGQKAKLYCAPIKGHSYVFWYQQVLKNEFKFLISFQNENVFDETGMPKERFSAKCLPNSPCSLEIQATKLEDSAVYFCASSQGQGGYGYTFGSGTRLTVV	recognises	recognises	recognises	recognises	recognises	recognises															binding result [2]: recognises; binding result [3]: recognises; binding result [7]: recognises
TCR2 (TCR, V domains shown) Valpha: QKEVEQNSGPLSVPEGAIASLNCTYSDRGSQSFFWYRQYSGKSPELIMSIYSNGDKEDGRFTAQLNKASQYVSLLIRDSQPSDSATYLCAVNIPFSNSGGYQKVTFGTGTKLQVIP Vbeta: NAGVTQTPKFRVLKTGQSMTLLCAQDMNHEYMYWYRQDPGMGLRLIHYSVGEGTTAKGEVPDGYNVSRLKKQNFLLGLESAAPSQTSVYFCASRHPGQYNQPQHFGDGTRLSIL	recognises			recognises	recognises		recognises	recognises	recognises	no recognition	recognises	recognises	recognises	recognises	recognises	recognises	recognises	recognises	recognises	recognises	binding result [24]: recognises; binding result [25]: recognises; binding result [26]: recognises; binding result [27]: recognises; binding result [28]: recognises; binding result [29]: recognises; binding result [30]: recognises; binding result [31]: recognises; binding result [32]: recognises; binding result [33]: recognises; binding result [34]: recognises; binding result [35]: recognises; binding result [36]: recognises; binding result [37]: recognises; binding result [38]: recognises; binding result [39]: recognises
TCR3 (TCR, V domains shown) Valpha: AQKVTQAQTEISVVEKEDVTLDCVYETRDTTYYLFWYKQPPSGELVFLIRRNSFDEQNEISGRYSWNFQKSTSSFNFTITASQVVDSAVYFCALSVLRMDSSYKLIFGSGTRLLVRP Vbeta: NAGVTQTPKFRVLKTGQSMTLLCAQDMNHEYMYWYRQDPGMGLRLIHYSVGEGTTAKGEVPDGYNVSRLKKQNFLLGLESAAPSQTSVYFCASSLQGAGQPQHFGDGTRLSIL		recognises	recognises			recognises	recognises	recognises	recognises	recognises	recognises	recognises	recognises	recognises	recognises	recognises	recognises	recognises	recognises	recognises	binding result [40]: recognises; binding result [41]: recognises; binding result [24]: recognises; binding result [25]: recognises; binding result [26]: recognises; binding result [28]: recognises; binding result [29]: recognises; binding result [30]: recognises; binding result [31]: recognises; binding result [32]: recognises; binding result [33]: recognises; binding result [34]: recognises; binding result [35]: recognises; binding result [36]: recognises; binding result [37]: recognises; binding result [38]: recognises; binding result [39]: recognises
